Laboratory results published in article PMC9571070, “Three-Fluorophore FRET Enables the Analysis of Ternary Protein Association in Living Plant Cells” (Plants, 2022).

Biological target: T1, Receptor-Like Protein 44 fused to monomeric Turquoise 2 (RLP44-mTRQ2) (UniProt Q9M2Y3 25-274)
T1 construct: Receptor-Like Protein 44 (RLP44); Plasma membrane protein with its own signal peptide; also called RLP44-TRQ2; source: N. benthamiana epidermal leaf cells, transiently transformed, in living cells; not shown: mTRQ2, C-terminal, kept
T1 sequence (looked up): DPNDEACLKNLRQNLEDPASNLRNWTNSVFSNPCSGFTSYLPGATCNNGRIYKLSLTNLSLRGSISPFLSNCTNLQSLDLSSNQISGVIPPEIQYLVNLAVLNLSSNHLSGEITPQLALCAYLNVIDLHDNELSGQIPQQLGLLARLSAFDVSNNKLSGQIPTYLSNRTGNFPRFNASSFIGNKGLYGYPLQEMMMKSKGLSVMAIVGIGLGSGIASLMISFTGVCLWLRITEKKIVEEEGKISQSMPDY
Test: FRET or BRET; FRET-FLIM, fluorescence lifetime of the donor RLP44-mTRQ2 (440 nm pulsed laser, TCSPC), two fusion proteins co-expressed, plasma membrane of living N. benthamiana epidermal leaf cells
Conditions: partners not purified

B1: BRI1 Associated Kinase 1 fused to monomeric red fluorescence protein 1 (BAK1-mRFP) (receptor, UniProt Q94F62 26-615, looked up)
chain: NAEGDALSALKNSLADPNKVLQSWDATLVTPCTWFHVTCNSDNSVTRVDLGNANLSGQLVMQLGQLPNLQYLELYSNNITGTIPEQLGNLTELVSLDLYLNNLSGPIPSTLGRLKKLRFLRLNNNSLSGEIPRSLTAVLTLQVLDLSNNPLTGDIPVNGSFSLFTPISFANTKLTPLPASPPPPISPTPPSPAGSNRITGAIAGGVAAGAALLFAVPAIALAWWRRKKPQDHFFDVPAEEDPEVHLGQLKRFSLRELQVASDNFSNKNILGRGGFGKVYKGRLADGTLVAVKRLKEERTQGGELQFQTEVEMISMAVHRNLLRLRGFCMTPTERLLVYPYMANGSVASCLRERPESQPPLDWPKRQRIALGSARGLAYLHDHCDPKIIHRDVKAANILLDEEFEAVVGDFGLAKLMDYKDTHVTTAVRGTIGHIAPEYLSTGKSSEKTDVFGYGVMLLELITGQRAFDLARLANDDDVMLLDWVKGLLKEKKLEALVDVDLQGNYKDEEVEQLIQVALLCTQSSPMERPKMSEVVRMLEGDGLAERWEEWQKEEMFRQDFNYPTHHPAVSGWIIGDSTSQIENEYPSGPR
notes: BRI1 Associated Kinase 1 (BAK1), co-receptor kinase; also called BAK1-RFP; source: N. benthamiana epidermal leaf cells, transiently transformed, in living cells; not shown: mRFP, C-terminal, kept
fluorescence lifetime of the donor RLP44-mTRQ2 (donor alone about 3.99 ns): 3.54 ns
